Earlier results in PMC8690575.

Target: Rhodopsin (Mus musculus) (UniProt P15409)

Arrestin-1 (from UniProt P20443)
Kd: 150 µM
